Laboratory results: US20220002432A1 (VIRTUOSO BINCO, published 2022)

B1: 21H9 (antibody, human IgG1, kappa, V domains shown)
VH: QSLEESGGDLVKPGASLTLTCTASGFSATTYYYYMCWVRQAPGKGLEWIACTYTGDGATYYATWAKGRFTISKTSSTTVTLQMTSLTAADTATYFCARSADNSIYYGYFNLWGPGTLVTVSS
VL: AFELTQTPFSVSEPVGGTVTINCQASENIYSSLAWYQQKPGQPPKLLIYRASTLASGVPSRFSGSGSGTEFTLTISGVQSDDAATYYCQTYYGSTSTGFTFGGGTEVVVKR
notes: Rabbit-human chimeric anti-CD38: rabbit VH and VL on human IgG1 and kappa constant regions
B2: 1E2 (antibody, human IgG1, kappa, V domains shown)
VH: QSVEESGGRLVTPGTPLTLTCTVSGIDLNSYAMGWVRQAPGKGLKYIGIMTSGGNIYYANWAKGRFTISKTSTTVDLRITSPTTEDTATYFCAREREFYGGGTSGSRLDLWGQGTLVTVSS
VL: AYDMTQTPASVEAAVGGTVTIKCQASQSIYNFLNWYQQKPGQPPKLLIYYASTLAFGVPSRFKGSGSGTEYTLTISGVESADAATYYCQQGWNSGILDNSFGGGTEVVVKR
notes: as for B1
B3: 23B3 (antibody, human IgG1, kappa, V domains shown)
VH: QSVEESGGRLVTPGTPLTLTCTVSGFSLSNYDMTWVRQAPGRGLEWIGVISSGDNTNYARWAKGRFTISKTSSTTVDLKITSPTTEDTATYFCARILYNKGRYYFTFWGPGTLVTVSS
VL: AQVLTQTPSSVSAAVGGTVTINCQSSQSIANSDELAWYQQKPGQPPKLLIYDASTLAPGVPSRFSGSGSGTQFTLTISGVQSDDAATYYCQGTVYDSGWYAAFGGGTEVVVKR
notes: as for B1
B4: 23D1 (antibody, human IgG1, kappa, V domains shown)
VH: QELVESGGGLFQPGGSLALTCKASGFSLSNIYVMCWVRQAPGKGLEWIACIGTGSGDTDYATWAKGRFTISKTSSTTVTLQMTSLTAADTATYFCARDPGAGTWNLWGPGTLVTVSS
VL: DIVMTQTPSSVEAAVGGTVTIKCQASQTIGSRLAWYQQKPGQPPKLLIYSASTLASGVSSRFKGSGSGTQFTLTISDLDSADAATYYCQSYYYTSTSYPNAFGGGTEVVVKR
notes: as for B1
B5: 21G2 (antibody, human IgG1, kappa, V domains shown)
VH: QSVEESGGRLVTPGTPLTLTCTVSGFSLSNYGVSWVRQAPGKGLEWIGYILTSGGTYYANWAQGRFTISKTSTTVDLKITSPTTEDTATYFCGRPKDSDSSAFVSLWGPGTLVTVSS
VL: DVVMTQTPASVSEPVGGTVTINCQASESIYSNLAWYQQKPGQPPKLLIYKASTLASGVSSRFKGSGSGTEFTLTISDLESADAATYYCQANHMIVIYGNGFGGGTEVVVKR
notes: as for B1

Target: T1, CD38 on the surface of Daudi cells (human, UniProt P28907 1-300)
T1 construct: whole, on cells
Assay: flow cytometry, Daudi cells;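 further: purified antibodies incubated with Daudi cells for 1 h at 4 °C, bound antibody detected by fluorescent secondary antibody and read by flow cytometry as MFI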
Method: Harvested cells were centrifuged at 2000 rpm for 5 min and resuspended with 10-15 ml ice-cold culture medium. Cells were counted and then 3×10⁶ cells were resuspended per mL of blocking buffer (PBS plus 2% FBS). 100 μl of the cell suspension was dispensed into each well of a 96-well plate and incubated at room temperature for 10-20 min. […] While incubating, purified antibodies were diluted to the desired dilution with blocking buffer. After a 10-20 minutes incubation, cells were centrifuged for 5 min at 2000 rmp in a refrigerated centrifuge. Blocking buffer was aspirated, and cells were resuspended in 100 μl/well diluted antibodies and incubated for 1 hour at 4° C. The cells were then washed 3 times with PBS plus 2% FBS. After the final wash, the cells were resuspended in 100 μl 1:500 diluted secondary antibody (Invitrogen, Cat #: A10631) and incubated for 1 hour at 4° C. in the dark. The cells were then washed 3 times with 200 μl PBS by centrifuging at 2000 rpm for 5 min. After the last wash, the cells were resuspended in 300 μl cold PBS and analyzed on a FACSVerse™ (BD Biosciences) flow cytometer.

EC50 | Max Binding MFI | Binder
1200 pM | 1930 MFI | B1
497 pM | 2130 MFI | B2
325 pM | 1330 MFI | B3
704 pM | 1000 MFI | B4
1130 pM | 2150 MFI | B5

Target: T2, cynomolgus CD38 ECD (cynomolgus, UniProt Q5VAN0 44-301, biotinylated on the AviTag during preparation)
T2 construct: also called Cyno-CD38; Avi-Cyno CD38 ECD
Assay: ELISA: plate coated with 1 ug/ml recombinant cynomolgus CD38 ECD, serially diluted antibody, OD450
Method: (§1) The plate was coated overnight at 4° C. with 1 μg/ml recombinant CD38 or ICAM1. After washing 3 times, the plate was blocked with 300 μl 1% BSA in PBST at 37° C. for 1 hour. Serially diluted antibodies were added and incubated at 37° C. for 1 hour. The plate was then washed 4 times with PBST and incubated with 1:5000 diluted 2nd antibody (Sigma, Cat #A0293) at 37° C. for 1 hour.

EC50 (read off the curve) | Binder
~60 pM | B1
~60 pM | B2
~60 pM | B3
~60 pM | B4
~60 pM | B5

Target: T3, recombinant human CD38 (human, UniProt P28907 43-300, limits assumed)
Assay: SPR (Biacore 8K), antibody captured, antigen injected;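 further: antibodies held on a CM5 chip through anti-human IgG Fc, antigen in 3-fold serial dilutions, 1 min association then 10 min dissociation at 25 °C, 1:1 Langmuir global fit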
Method: (§2) The binding kinetics of the anti-CD38 and anti-ICAM1 antibodies were evaluated on a Biacore 8K instrument (GE Healthcare). Biacore Series S CM5 sensor chips were immobilized with monoclonal mouse anti-human IgG (Fc) antibody (human antibody capture kit from GE Healthcare). Antibodies were captured on each flow cell. Serial 3-fold dilutions of each antigen were injected at a flow rate of 30 μl/min. Each sample was analyzed with 1 min association and 10 min dissociation at room temperature (25° C.). After each injection, the chip was regenerated using 3M MgCl₂. A 1:1 Langmuir model of simultaneous fitting of kₒₙ and koff was used for kinetics analysis.

Kd | koff | kon | Binder
4 pM | 5.99e-07 s⁻¹ | 166000 M⁻¹ s⁻¹ | B1
1620 pM | 0.000388 s⁻¹ | 240000 M⁻¹ s⁻¹ | B2
0.029 pM | 2.77e-08 s⁻¹ | 970000 M⁻¹ s⁻¹ | B3
670 pM | 0.000125 s⁻¹ | 187000 M⁻¹ s⁻¹ | B4
190 pM | 3.1e-05 s⁻¹ | 167000 M⁻¹ s⁻¹ | B5

Target: T2, cynomolgus CD38 ECD
Assay: as above
Method: as §2

Kd | koff | kon | Binder
760 pM | 0.00014 s⁻¹ | 184000 M⁻¹ s⁻¹ | B1
68100 pM | 0.0124 s⁻¹ | 182000 M⁻¹ s⁻¹ | B2
40 pM | 9.46e-05 s⁻¹ | 2.43e+06 M⁻¹ s⁻¹ | B3
550 pM | 0.000294 s⁻¹ | 536000 M⁻¹ s⁻¹ | B4
1710 pM | 0.000432 s⁻¹ | 253000 M⁻¹ s⁻¹ | B5

Target: T3, recombinant human CD38
Assay: ELISA: plate coated with 1 ug/ml recombinant human CD38 ECD, serially diluted antibody, OD450
Method: as §1

EC50 (read off the curve) | Binder
~60 pM | B1
~60 pM | B2
~60 pM | B3
~60 pM | B4
~60 pM | B5
